Data published in publication PMC10954123.

Assays:
[1] = biological target: MotE, endogenous in Cereibacter sphaeroides AM1 (Cereibacter sphaeroides (endogenous in AM1)); experiment: non-reducing SDS-PAGE; total cell extracts of AM1 prepared without or with beta-mercaptoethanol, immunodetection with anti-MotE; monomer to disulfide-linked dimer
[2] = biological target: His6x-MotE (mature form of MotE of Cereibacter sphaeroides) (Cereibacter sphaeroides); experiment: non-reducing SDS-PAGE; purified His6x-MotE, loading buffer without or with beta-mercaptoethanol, Coomassie blue stain; monomer to disulfide-linked dimer

Substance | stoichiometry N [1] | stoichiometry N [2]
MotE, endogenous in Cereibacter sphaeroides AM1 (natural protein) | 2 | –
His6x-MotE (mature form of MotE of Cereibacter sphaeroides) (natural protein) | – | 2
